Target: GST-importin α5 (aa 400–538) (human, UniProt P52294 400-538)
Assay: SPR

GST-importin α5 (aa 400–538), sequence (P52294 400-538): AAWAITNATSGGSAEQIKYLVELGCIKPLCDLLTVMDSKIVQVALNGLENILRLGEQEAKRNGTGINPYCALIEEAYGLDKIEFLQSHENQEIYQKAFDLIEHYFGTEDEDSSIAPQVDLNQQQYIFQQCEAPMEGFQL

| Binder | Kd | binding result |
| --- | --- | --- |
| KAKTEEKDLKKLKKQEKEEKDFRKKFK [ADAP NLS2 peptide] | 2.38 nM | – |
| KEREKKREKEEKKRLELEKKEQKEKEKKEQEIKKK [ADAP NLS1 peptide] | 2.67 nM | – |
| HLQLKEQKNA [STAT1 NLS peptide] | – | binds |

Reference: PMC9149338 (Cellular and Molecular Immunology, 2022)
